Each sequence was assayed on Escherichia coli TOP10 (assay: shrunken log2 fold change of peptide-encoding DNA abundance (4.5 h post-induction vs induction); higher = less antimicrobial activity (less host growth inhibition)). Settings: time post-induction: 4.5 h; library: site-saturation at positions 5, 18, 19, 20.
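Note: peptides expressed intracellularly from a pBAD plasmid library in pooled LB shake-flask culture, induced with 0.3% L-arabinose, DNA abundance read by NGS, three biological replicates, DESeq2 with apeglm shrinkage.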

Sequence | shrunken log2 fold change
RRIRRRPPRLPRPRPRPEIMPRP | 0.209
RRIRWRPPRLPRPRPRPSMQPRP | -0.0561
RRIRFRPPRLPRPRPRPEEMPRP | -0.00182
RRIRFRPPRLPRPRPRPYCRPRP | -0.256
RRIRQRPPRLPRPRPRPWRNPRP | -0.00208
RRIRNRPPRLPRPRPRPLGSPRP | -0.0602
RRIRKRPPRLPRPRPRPTDMPRP | -0.124
RRIRMRPPRLPRPRPRPEGNPRP | 0.182
RRIRQRPPRLPRPRPRPELRPRP | -0.043
RRIRWRPPRLPRPRPRPEFFPRP | 0.54
RRIRQRPPRLPRPRPRPEGYPRP | -0.0294
RRIRKRPPRLPRPRPRPTDKPRP | 0.208
RRIRERPPRLPRPRPRPNPMPRP | -0.211
RRIRNRPPRLPRPRPRPKERPRP | 0.0296
RRIRIRPPRLPRPRPRPMHRPRP | -0.262
RRIRMRPPRLPRPRPRPMMWPRP | 0.274
RRIRDRPPRLPRPRPRPDEYPRP | 0.436
RRIRYRPPRLPRPRPRPQNSPRP | -0.00968
RRIRRRPPRLPRPRPRPYWTPRP | 0.000827
RRIRWRPPRLPRPRPRPHCHPRP | -0.254
RRIRKRPPRLPRPRPRPQMGPRP | 0.0203
RRIRHRPPRLPRPRPRPLCDPRP | -0.397
RRIRRRPPRLPRPRPRPRFAPRP | 0.616
RRIRVRPPRLPRPRPRPDSNPRP | -0.159
RRIRRRPPRLPRPRPRPENKPRP | -0.0891

Sequence | shrunken log2 fold change
RRIRFRPPRLPRPRPRPHRYPRP | -0.402
RRIRPRPPRLPRPRPRPTTLPRP | -0.0741
RRIRGRPPRLPRPRPRPSNHPRP | -0.145
RRIRWRPPRLPRPRPRPVPWPRP | 0.374
RRIRNRPPRLPRPRPRPYMSPRP | -0.019
RRIRFRPPRLPRPRPRPIQMPRP | -0.0945
RRIRQRPPRLPRPRPRPSEKPRP | -0.018
RRIRWRPPRLPRPRPRPCYFPRP | -0.0204
RRIRHRPPRLPRPRPRPNKAPRP | 0.147
RRIRCRPPRLPRPRPRPANRPRP | 0.127
RRIRQRPPRLPRPRPRPRYFPRP | -0.247
RRIRKRPPRLPRPRPRPSYCPRP | -0.251
RRIRGRPPRLPRPRPRPWTIPRP | 0.00608
RRIRERPPRLPRPRPRPSEKPRP | -0.0759
RRIRYRPPRLPRPRPRPHSYPRP | -0.188
RRIRFRPPRLPRPRPRPACFPRP | 0.0876
RRIRWRPPRLPRPRPRPFYRPRP | -0.179
RRIRTRPPRLPRPRPRPHLSPRP | -0.0793
RRIRPRPPRLPRPRPRPLNRPRP | -0.0518
RRIRHRPPRLPRPRPRPAYRPRP | -0.00502
RRIRYRPPRLPRPRPRPWWDPRP | -0.266
RRIRWRPPRLPRPRPRPNQIPRP | -0.189
RRIRTRPPRLPRPRPRPSCAPRP | -0.127
RRIRYRPPRLPRPRPRPFLSPRP | -0.0547
RRIRTRPPRLPRPRPRPCPAPRP | 0.115

Sequence | shrunken log2 fold change
RRIRIRPPRLPRPRPRPDPNPRP | -0.546
RRIRNRPPRLPRPRPRPKHGPRP | 0.0401
RRIRDRPPRLPRPRPRPAMPPRP | -0.107
RRIRIRPPRLPRPRPRPIVMPRP | -0.0726
RRIRSRPPRLPRPRPRPGPDPRP | 0.332
RRIRQRPPRLPRPRPRPDRDPRP | -0.242
RRIRSRPPRLPRPRPRPEDMPRP | -0.088
RRIRVRPPRLPRPRPRPLKFPRP | 0.044
RRIRFRPPRLPRPRPRPPNFPRP | -0.22
RRIRPRPPRLPRPRPRPEYSPRP | -0.117
RRIRRRPPRLPRPRPRPEISPRP | 0.17
RRIRFRPPRLPRPRPRPTFMPRP | -0.444
RRIRVRPPRLPRPRPRPKTDPRP | -0.202
RRIRNRPPRLPRPRPRPRGHPRP | 0.347
RRIRSRPPRLPRPRPRPIAKPRP | -0.0775
RRIRFRPPRLPRPRPRPCANPRP | 0.133
RRIRNRPPRLPRPRPRPNSDPRP | -0.073
RRIRWRPPRLPRPRPRPPHDPRP | 0.738
RRIRERPPRLPRPRPRPMRVPRP | 0.501
RRIRPRPPRLPRPRPRPRIPPRP | 0.243
RRIRGRPPRLPRPRPRPFWNPRP | 0.087
RRIRERPPRLPRPRPRPVTLPRP | -0.289
RRIRHRPPRLPRPRPRPQGKPRP | -0.0805
RRIRQRPPRLPRPRPRPKVQPRP | 0.0205
RRIRWRPPRLPRPRPRPTMKPRP | -0.0612

Sequence | shrunken log2 fold change
RRIRIRPPRLPRPRPRPQPPPRP | -0.0122
RRIRHRPPRLPRPRPRPEEIPRP | 0.0207
RRIRERPPRLPRPRPRPSVYPRP | -0.493
RRIRTRPPRLPRPRPRPNLFPRP | 0.0121
RRIRERPPRLPRPRPRPSHFPRP | 0.000406
RRIRPRPPRLPRPRPRPNPNPRP | 0.367
RRIRDRPPRLPRPRPRPIRSPRP | -0.00822
RRIRHRPPRLPRPRPRPWLVPRP | -0.0872
RRIRCRPPRLPRPRPRPMWGPRP | -0.214
RRIRARPPRLPRPRPRPPSDPRP | 0.705
RRIRCRPPRLPRPRPRPTTAPRP | 0.166
RRIRIRPPRLPRPRPRPQPIPRP | -0.00642
RRIRERPPRLPRPRPRPIFNPRP | -0.663
RRIRARPPRLPRPRPRPPKSPRP | 0.658
RRIRVRPPRLPRPRPRPLHQPRP | 0.0791
RRIRWRPPRLPRPRPRPKGMPRP | -0.159
RRIRNRPPRLPRPRPRPNPVPRP | -0.139
RRIRARPPRLPRPRPRPTVWPRP | 0.552
RRIRIRPPRLPRPRPRPKFCPRP | -0.639
RRIRMRPPRLPRPRPRPSLLPRP | 0.0721
RRIRVRPPRLPRPRPRPSTQPRP | -0.0637
RRIRGRPPRLPRPRPRPLDTPRP | 0.963
RRIRLRPPRLPRPRPRPHIDPRP | -0.135
RRIRIRPPRLPRPRPRPKFAPRP | -0.0494
RRIRMRPPRLPRPRPRPGPKPRP | 1.81

Sequence | shrunken log2 fold change
RRIRHRPPRLPRPRPRPQDSPRP | -0.00865
RRIRGRPPRLPRPRPRPNPEPRP | 0.511
RRIRNRPPRLPRPRPRPGGEPRP | -0.0266
RRIRLRPPRLPRPRPRPMKNPRP | -0.303
RRIRRRPPRLPRPRPRPKKTPRP | -0.0163
RRIRSRPPRLPRPRPRPWLSPRP | -0.00679
RRIRSRPPRLPRPRPRPTACPRP | 0.249
RRIRPRPPRLPRPRPRPHCGPRP | -0.168
RRIRKRPPRLPRPRPRPETLPRP | 0.0437
RRIRMRPPRLPRPRPRPTWEPRP | 0.312
RRIRNRPPRLPRPRPRPPAPPRP | 0.78
RRIRKRPPRLPRPRPRPAEDPRP | 1.33
RRIRWRPPRLPRPRPRPDGSPRP | -0.0311
RRIRRRPPRLPRPRPRPIRWPRP | 0.0197
RRIRFRPPRLPRPRPRPWTVPRP | -0.0388
RRIRDRPPRLPRPRPRPLRRPRP | 0.463
RRIRWRPPRLPRPRPRPFLEPRP | 0.0541
RRIRTRPPRLPRPRPRPATVPRP | 0.0426
RRIRERPPRLPRPRPRPLMEPRP | 0.0296
RRIRRRPPRLPRPRPRPGNSPRP | 0.119
RRIRVRPPRLPRPRPRPVFNPRP | -0.392
RRIRHRPPRLPRPRPRPFHPPRP | -0.274
RRIRWRPPRLPRPRPRPHGKPRP | 0.00196
RRIRGRPPRLPRPRPRPAYVPRP | -0.0723
RRIRKRPPRLPRPRPRPRVMPRP | 0.436

Sequence | shrunken log2 fold change
RRIRGRPPRLPRPRPRPGNGPRP | 0.434
RRIRRRPPRLPRPRPRPGMIPRP | -0.00969
RRIRNRPPRLPRPRPRPAPAPRP | 0.959
RRIRNRPPRLPRPRPRPWRMPRP | 0.0039
RRIRVRPPRLPRPRPRPGTQPRP | -0.183
RRIRERPPRLPRPRPRPPLLPRP | -0.0533
RRIRFRPPRLPRPRPRPGSFPRP | -0.0983
RRIRIRPPRLPRPRPRPHNPPRP | -1.23
RRIRIRPPRLPRPRPRPMYRPRP | -0.0946
RRIRERPPRLPRPRPRPPITPRP | -0.351
RRIRPRPPRLPRPRPRPDRVPRP | 0.187
RRIRPRPPRLPRPRPRPTLPPRP | 0.309
RRIRERPPRLPRPRPRPKWHPRP | -0.136
RRIRYRPPRLPRPRPRPRTIPRP | -0.228
RRIRRRPPRLPRPRPRPEKVPRP | 0.448
RRIRCRPPRLPRPRPRPYHGPRP | -0.968
RRIRSRPPRLPRPRPRPYMLPRP | -0.981
RRIRKRPPRLPRPRPRPGGWPRP | 0.62
RRIRVRPPRLPRPRPRPKKRPRP | 0.154
RRIRHRPPRLPRPRPRPGHLPRP | -0.0129
RRIRPRPPRLPRPRPRPHRDPRP | -0.0367
RRIRFRPPRLPRPRPRPVKRPRP | 0.0219
RRIRARPPRLPRPRPRPLVTPRP | 0.178
RRIRTRPPRLPRPRPRPMDQPRP | 0.0595
RRIRERPPRLPRPRPRPTWMPRP | 0.0534
